Results on one protein are retold here after patent publication US20090263375.

For data set [1], the target named is T1, Flag-Star-PAP (full length).
T1 chain: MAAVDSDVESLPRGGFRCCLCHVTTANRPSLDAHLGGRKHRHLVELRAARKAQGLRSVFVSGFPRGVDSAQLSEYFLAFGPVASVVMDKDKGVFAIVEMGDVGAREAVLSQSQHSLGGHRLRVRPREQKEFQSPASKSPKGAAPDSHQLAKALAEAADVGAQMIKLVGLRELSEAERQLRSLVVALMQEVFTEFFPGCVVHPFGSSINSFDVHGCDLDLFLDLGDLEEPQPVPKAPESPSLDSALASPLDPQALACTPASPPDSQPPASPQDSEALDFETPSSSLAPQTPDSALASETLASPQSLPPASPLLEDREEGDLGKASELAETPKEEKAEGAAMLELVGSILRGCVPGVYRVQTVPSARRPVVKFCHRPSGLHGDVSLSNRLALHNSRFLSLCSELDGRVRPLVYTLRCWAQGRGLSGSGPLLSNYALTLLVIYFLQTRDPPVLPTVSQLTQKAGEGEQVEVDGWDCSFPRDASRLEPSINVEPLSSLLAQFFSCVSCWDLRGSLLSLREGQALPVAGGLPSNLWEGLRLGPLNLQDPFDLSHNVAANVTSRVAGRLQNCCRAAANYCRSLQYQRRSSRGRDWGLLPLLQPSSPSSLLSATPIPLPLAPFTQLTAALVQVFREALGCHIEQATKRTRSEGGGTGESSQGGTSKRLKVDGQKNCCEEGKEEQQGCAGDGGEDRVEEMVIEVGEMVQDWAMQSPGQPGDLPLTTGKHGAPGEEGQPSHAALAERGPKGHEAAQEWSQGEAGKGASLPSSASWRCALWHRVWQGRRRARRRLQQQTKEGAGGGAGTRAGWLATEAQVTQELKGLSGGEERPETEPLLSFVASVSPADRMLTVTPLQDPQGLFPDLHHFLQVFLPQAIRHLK

Data set [2] concerns the target T2, FLAG-Star-PAP ΔPRR ½ (lacking amino acids 223-274).
T2 chain: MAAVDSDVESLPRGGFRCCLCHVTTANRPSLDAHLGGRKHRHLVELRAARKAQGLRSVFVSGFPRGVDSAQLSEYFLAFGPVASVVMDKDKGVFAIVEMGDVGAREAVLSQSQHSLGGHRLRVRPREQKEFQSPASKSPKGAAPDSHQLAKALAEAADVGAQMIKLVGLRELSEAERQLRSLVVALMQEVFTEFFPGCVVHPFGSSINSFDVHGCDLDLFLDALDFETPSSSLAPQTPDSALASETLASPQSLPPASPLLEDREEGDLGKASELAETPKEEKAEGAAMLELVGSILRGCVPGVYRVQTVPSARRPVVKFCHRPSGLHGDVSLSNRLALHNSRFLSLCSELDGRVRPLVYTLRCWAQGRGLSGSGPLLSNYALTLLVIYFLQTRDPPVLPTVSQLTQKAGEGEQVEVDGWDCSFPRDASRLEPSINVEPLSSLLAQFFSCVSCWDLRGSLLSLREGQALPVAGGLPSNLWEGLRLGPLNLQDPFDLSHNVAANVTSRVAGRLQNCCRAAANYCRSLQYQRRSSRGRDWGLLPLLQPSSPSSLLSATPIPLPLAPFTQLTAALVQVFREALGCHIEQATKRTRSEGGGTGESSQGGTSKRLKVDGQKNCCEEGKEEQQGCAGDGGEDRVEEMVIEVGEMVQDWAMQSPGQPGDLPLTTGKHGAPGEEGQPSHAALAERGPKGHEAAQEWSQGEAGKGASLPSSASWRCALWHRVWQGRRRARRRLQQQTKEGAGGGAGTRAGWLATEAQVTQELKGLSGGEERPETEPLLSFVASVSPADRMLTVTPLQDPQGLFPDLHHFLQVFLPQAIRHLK

B1: FLAG-CKIα (wild type) (protein)
chain: MASSSGSKAEFIVGGKYKLVRKIGSGSFGDIYLAINITNGEEVAVKLESQKARHPQLLYESKLYKILQGGVGIPHIRWYGQGKDYNVLVMDLLGPSLEDLFNFCSRRFTMKTVLMLADQMISRIEYVHTKNFIHRDIKPDNFLMGIGRHCNKLFLIDFGLAKKYRDNRTRQHIPYREDKNLTGTARYASINAHLGIEQSRRDDMESLGYVLMYFNRTSLPWQGLKAATKKQKYEKISEKKMSTPVEVLCKGFPAEFAMYLNYCRGLRFEEAPDYMYLRQLFRILFRTLNHQYDYTFDWTMLKQKAAQQAASSSGQGQQAQTPTGF
With B1, the “in vitro kinase assay: phosphorylation of heat inactivated FLAG-Star-PAP” value in data set [1] is on record as “Purified FLAG-CKIα was able to directly phosphorylate heat inactivated Star-PAP”. Further, the “in vitro kinase assay: phosphorylation of FLAG-Star-PAP truncation and deletion mutants” value in data set [2] is recorded as “CKIα was able to phosphorylate all truncation mutants except those which lacked the first half of the proline rich region (ΔPRR ½, amino acids 223-274)”.
